{"source": "paper PMC12089923", "target": "AffiTagged cyclicPfAMA1-DI (folded protein 45) (Plasmodium falciparum)", "assay": "SPR; AffiTagged cyclicPfAMA1-DI held on a nickel-NTA chip (BI-4500, Biosensing Instrument Inc.), PfRON2_(2021-2059) in solution; kinetic fit, average of three repeats", "data": [{"substance": "PfRON2_(2021-2059) peptide (rhoptry neck protein 2 ectodomain peptide) (from UniProt Q8IKV6 2021-2059)", "values": [{"measurement": "Kd", "result": 500, "unit": "nM"}, {"measurement": "koff", "result": 0.0708, "unit": "s⁻¹"}, {"measurement": "kon", "result": 142000, "unit": "M⁻¹ s⁻¹"}]}]}
